In article PMC10419091:

How the values were obtained:
[1] = viscosimetry; falling-ball micro-viscometer, 20 °C; Tpm 2 mg/mL in 30 mM Hepes-Na pH 7.3, 100 mM NaCl, 4 mM DTT; viscosity over buffer viscosity; end-to-end interaction of adjacent Tpm molecules; details: other: viscosimetry
[2] = target: filamentous actin (F-actin) from rabbit m. psoas (rabbit) (UniProt P68135); assay: co-sedimentation; 10 µM F-actin with 0.5 to 7.5 µM Tpm in 30 mM Hepes-Na pH 7.3, 200 mM NaCl; 40 min at 25 °C, then 40 min at 100,000 g at 4 °C; supernatants and pellets by SDS-PAGE; apparent affinity (K50%: Tpm concentration at which half of the actin is saturated)
[3] = target: filamentous actin (F-actin) from rabbit m. psoas (rabbit) (UniProt P68135); assay: temperature dependence of light scattering; thermally induced dissociation of Tpm from phalloidin-stabilized F-actin; 20 µM F-actin, 10.5 µM Tpm, 30 mM Hepes-Na pH 7.3, 100 mM NaCl; light scattering at 90°, 350 nm, heating 1 °C/min; Tdiss: temperature of a 50% decrease

Row | Substance | viscosity after subtraction of the buffer viscosity [1] | K50% [2] | Tdiss [3]
1 | human E98K Tpm1.1 mutant (cardiac tropomyosin 1.1 with Glu98Lys), recombinant, with Ala-Ser N-terminal extension | 0.28 ± 0.01 mPa∙s | – | –
2 | human E98K Tpm1.1 mutant (cardiac tropomyosin 1.1 with Glu98Lys), recombinant, with Ala-Ser N-terminal extension (natural protein) | – | 2.57 µM | 42.4 °C
3 | wild-type cardiac tropomyosin 1.1 isoform (Tpm1.1), recombinant, with Ala-Ser N-terminal extension | 0.31 ± 0.01 mPa∙s | – | –
4 | wild-type cardiac tropomyosin 1.1 isoform (Tpm1.1), recombinant, with Ala-Ser N-terminal extension (natural protein) | – | 2.45 µM | 45.5 °C
